Data as given in US20200199233A1 (Regeneron, published 2020).
Values joined by “and” are separate entries in the source; they are usually repeats but may differ in a detail not shown here. Equal values may be shown once.

T1: hMUC16.mmh (human)
T1 construct: also called hMUC16 with C-term myc-myc-6xHis tag; human MUC16 membrane proximal domain (P13810-P14451) having a myc-myc-his tag
T1 chain: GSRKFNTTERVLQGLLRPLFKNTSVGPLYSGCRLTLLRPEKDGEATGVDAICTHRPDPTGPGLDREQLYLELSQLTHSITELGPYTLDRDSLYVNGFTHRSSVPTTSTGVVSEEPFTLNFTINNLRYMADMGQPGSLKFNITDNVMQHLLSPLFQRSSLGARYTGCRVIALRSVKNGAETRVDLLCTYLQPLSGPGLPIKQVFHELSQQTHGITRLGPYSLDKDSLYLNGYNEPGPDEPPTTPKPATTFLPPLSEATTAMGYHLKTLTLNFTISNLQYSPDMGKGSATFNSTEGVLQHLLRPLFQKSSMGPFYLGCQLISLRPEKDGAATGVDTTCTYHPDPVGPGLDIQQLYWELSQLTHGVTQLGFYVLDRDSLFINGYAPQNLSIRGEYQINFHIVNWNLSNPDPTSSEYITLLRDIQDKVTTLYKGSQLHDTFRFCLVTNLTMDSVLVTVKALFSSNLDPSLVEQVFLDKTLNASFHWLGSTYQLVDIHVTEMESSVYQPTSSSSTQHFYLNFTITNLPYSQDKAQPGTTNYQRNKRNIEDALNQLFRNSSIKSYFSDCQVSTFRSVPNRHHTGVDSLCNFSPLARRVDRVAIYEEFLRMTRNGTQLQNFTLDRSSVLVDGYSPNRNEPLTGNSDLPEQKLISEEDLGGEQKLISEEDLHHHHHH


How the values were obtained:
[1] = molecular target: T2, human CD28 on human T cells (human, UniProt P10747 19-152); test: cell-based or functional assay
[2] = molecular target: T2, human CD28 on human T cells; test: flow cytometry, human CD8+ T cells
Description: (§1) After incubation, the cells were washed twice with cold PBS containing 1% filtered FBS and a PE-conjugated or Alexa647-conjugated anti-human secondary antibody was added to the MUC16 expressing cells or Human/Cyno T cells, respectively, and incubated for an additional 30 minutes. Live/dead dye was added to Human and Cynomolgus T cells incubations. Wells containing no antibody or secondary only were used as a control.
(§2) After incubation with Human or Cynomolgus T cells, cells were washed, and stained with a cocktail of anti-CD2, ant-CD16, anti-CD4, and anti-CD8 antibodies in Brilliant Stain Buffer for an extra 20 min incubation at 4° C. After wash, cells were re-suspended in 200 μL cold PBS containing 1% filtered FBS, gated in a Live/CD2+/CD4+/CD16− or Live/CD2+/CD8+/CD16− gate and analyzed by Flow cytometry on a BD FACS LSR-Fortessa-X20.

hCD28.mmh = molecular target: T3, hCD28.mmh (human); test: SPR (Biacore), 37 C, antibody captured by anti-human Fc, hCD28.mmh injected
T3 construct: also called hCD28 with C-term myc-myc-6xHis tag; human CD28 ecto domain (N19-P152) having a myc-myc-his tag
Description: (§3) The dissociation of bound hMUC16, hCD28, and mCD28 reagents was monitored for 10 minutes in HBS-ET running buffer. Association (kₐ) and dissociation (kd) rate constants were determined by fitting the real-time binding sensorgrams to a 1:1 binding model with mass transport limitation using Scrubber evaluation software version 2.0c. Binding dissociation equilibrium constants (KD) and dissociative half-lives (t½) were calculated from the kinetic rate constants as:

[3] = molecular target: T4, cynomolgus CD28 on cynomolgus T cells (cynomolgus monkey, UniProt Q0PDN3 19-220); test: flow cytometry, cynomolgus CD4+ T cells
T4 construct: whole, on cells
Description: as §1, §2

[4] = molecular target: T2, human CD28 on human T cells; test: flow cytometry, human CD4+ T cells
Description: as §1, §2

[5] = molecular target: T2, human CD28 on human T cells; test: cell-based or functional assay; remark: listed apart in the source
[6] = molecular target: T4, cynomolgus CD28 on cynomolgus T cells; test: flow cytometry, cynomolgus CD8+ T cells
Description: as §1, §2

hMUC16.mmh = molecular target: T1, hMUC16.mmh; test: SPR (Biacore), 37 C, antibody captured by anti-human Fc, hMUC16.mmh injected
Description: as §3

Row | Binder | IL-2 release from primary human CD4+ T cells, EC50, OVCAR3 target cells, 5 nM REGN4018 [1] [nM] | IL-2 release from primary human CD4+ T cells, EC50, PEO-1 target cells, 5 nM REGN4018 [1] [nM] | IL-2 release from primary human CD4+ T cells, fold induction, OVCAR3 target cells, 5 nM REGN4018 [1] [fold] | IL-2 release from primary human CD4+ T cells, fold induction, PEO-1 target cells, 5 nM REGN4018 [1] [fold] | EC50 [2] [nM] | Kd (hCD28.mmh) [nM] | T½ (hCD28.mmh) [min] | koff (hCD28.mmh) [s⁻¹] | kon (hCD28.mmh) [M⁻¹ s⁻¹] | EC50 [3] [nM] | EC50 [4] [nM] | IL-2 release from primary human CD4+ T cells, fold induction, OVCAR3 target cells, 5 nM hIgG4 isotype control [5] [fold] | IL-2 release from primary human CD4+ T cells, fold induction, PEO-1 target cells, 5 nM hIgG4 isotype control [5] [fold] | EC50 [6] [nM] | Kd (hMUC16.mmh) | T½ (hMUC16.mmh) | koff (hMUC16.mmh) | kon (hMUC16.mmh)
1 | Parental 2 hCD28 (for bs24963D) (antibody, V domains shown) VH: QVQLQESGPGLVKPSETLSLTCTVSGGSISSYYWSWIRQPPGKGLEWIGYIYYSGITHYNPSLKSRVTISVDTSKIQFSLKLSSVTAADTAVYYCARWGVRRDYYYYGMDVWGQGTTVTVSS VL: not shown | – | 0.107 | 2.46 | 2.05 | – | – | – | – | – | – | – | 1.12 | 1.03 | – | – | – | – | –
2 | Parental 1 hCD28 (for bs32897D) (antibody, V domains shown) VH: EVQLVESGGGLVQPGGSLRLSCAASGFTFSRNNMHWVRQAPGKGLEYVSGISSNGGRTYYADSVKGRFTISRDNSKNTLYLQMGGLRAADMAVYFCTRDDELLSFDYWGQGTLVTVSS VL: not shown | – | – | 1.58 | 1.42 | – | – | – | – | – | – | – | 1.1 | 1.3 | – | – | – | – | –

Next, values leading:

Row | IL-2 release from primary human CD4+ T cells, EC50, OVCAR3 target cells, 5 nM REGN4018 [1] [nM] | IL-2 release from primary human CD4+ T cells, EC50, PEO-1 target cells, 5 nM REGN4018 [1] [nM] | IL-2 release from primary human CD4+ T cells, fold induction, OVCAR3 target cells, 5 nM REGN4018 [1] [fold] | IL-2 release from primary human CD4+ T cells, fold induction, PEO-1 target cells, 5 nM REGN4018 [1] [fold] | EC50 [2] [nM] | Kd (hCD28.mmh) [nM] | T½ (hCD28.mmh) [min] | koff (hCD28.mmh) [s⁻¹] | kon (hCD28.mmh) [M⁻¹ s⁻¹] | EC50 [3] [nM] | EC50 [4] [nM] | IL-2 release from primary human CD4+ T cells, fold induction, OVCAR3 target cells, 5 nM hIgG4 isotype control [5] [fold] | IL-2 release from primary human CD4+ T cells, fold induction, PEO-1 target cells, 5 nM hIgG4 isotype control [5] [fold] | EC50 [6] [nM] | Kd (hMUC16.mmh) | T½ (hMUC16.mmh) | koff (hMUC16.mmh) | kon (hMUC16.mmh) | Binder
3 | 0.401 | 0.996 | 5.32 | 10.9 | 253 | 165 | 2.1 | 0.00538 | 32700 | 203 | 261 | 1.33 | 1.12 | 122 | 0.933 nM and 0.912 nM | 53.1 min and 28 min | 0.000412 s⁻¹ and 0.000218 s⁻¹ | 441000 M⁻¹ s⁻¹ and 238000 M⁻¹ s⁻¹ | bs24963D (bispecific antibody, IgG4, V domains shown, Two different heavy chains pair with a common light chain; also called REGN5668; anti-MUC16xCD28) VH 1: QVQLQESGPGLVKPSETLSLTCTVSGGSISSYYWSWIRQPPGKGLEWIGYIYYSGITHYNPSLKSRVTISVDTSKIQFSLKLSSVTAADTAVYYCARWGVRRDYYYYGMDVWGQGTTVTVSS VH 2: EVQLVESGGGLEQPGRSLRLSCTASGFAFGDHTMSWVRQAPGKGLEWVGFIRSRAYGGTTEYAASVKGRFTISRDDSKSIAYLQMDSLKTEDTAVYYCTSGGYDSSLHYYYYYHGMDVWGRGTTVTVSS VL: not shown
4 | 0.607 | – | 5.63 | 5.22 | 7580 | – | – | – | – | 5700 | 9160 | 1.06 | 1.12 | 3020 | – | – | – | – | bs32897D (bispecific antibody, V domains shown, also called anti-MUC16xCD28) VH 1: EVQLVESGGGLVQPGGSLRLSCAASGFTFSRNNMHWVRQAPGKGLEYVSGISSNGGRTYYADSVKGRFTISRDNSKNTLYLQMGGLRAADMAVYFCTRDDELLSFDYWGQGTLVTVSS VH 2: QVQLVESGGGLVKPGGSLRLSCAASGFTFRDYSMSWIRQAPGKGLEWVSYVTFFNSAIYYADSVKGRFTISRDNAKNSLYLQMNSLRAEDTAVYYCAREREPIVGGFDYWGQGTLVTVSS VL: not shown
